{"source": "the nanobody polyreactivity screen of Harvey et al. (2022)"}
{"test": "yeast display, Sf9 membrane polyspecificity reagent, FACS + sequencing; frameworks hold sequencing errors", "how_it_was_run": "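A synthetic nanobody library was expressed on Saccharomyces cerevisiae BJ5465 by galactose induction for 36–48 hours. The library was stained for 1 hour at 4 °C with 10% biotinylated, detergent-solubilized Sf9 membrane reagent and enriched with streptavidin microbeads before FACS. Low and high (top ~1%) gates were set on anti-HA fluorescence for expression and streptavidin fluorescence for reagent binding, and each polyreactivity label reflects the gate of origin.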"}
{"sequence": "QVQLVESGGGLVQAGGSLRLSCAASGSTFYRNTMGWYRQAPGKERELVAAISRTGASTHYADSVKGRFTISRDNAKNTVYLQMNSLKPEDTAVYYCNAVPAIGKYYGGGYWGQGTQVTVSS", "polyreactivity (PSR sort gate)": "high polyreactivity"}
{"sequence": "QVQLVESGGGLVQAGGSLRLSCAASGRIFGWNAMGWYRQAPGKERELVAGISSSGGSTYYADSVKGRFTISRDNAKNTVYLQMNSLKPEDTAVYYCARRHYVGYYGYYYWGQGTQVTVSS", "polyreactivity (PSR sort gate)": "high polyreactivity"}
{"sequence": "QVQLVESGGGLVQAGGSLRLSCAASGSIFYNYAMGWYRQAPGKERELVAAISGSGGSTYYADSVKGRFTISRDNAKNTVYGQMNSLKPEDTAVYYCSTSGPQYYSRNFDYWGQGTQVTVSS", "polyreactivity (PSR sort gate)": "low polyreactivity"}
{"sequence": "QVQLVESGGGLVQAGGSLRLSCAASGRTFHYYAMGWYRQAPGKERELVAGITGGGSTYYADSVKGRFTISRDNAKNTVYLQMNSLKPEDTAVYYCNARPYWFGSYGYWGQGTQVTVSS", "polyreactivity (PSR sort gate)": "low polyreactivity"}
{"sequence": "QVQLVESGGGLVQAGGSLLLICAASGSILGTNAMGWYRQAPGKERELVAAISSSGRTSYADSVKGRFTISRDNAKNTVSLQMNSLKPEDTAVYYCNASNYIVLIIDPDAAPWLYDYWGQGTQVTVSS", "polyreactivity (PSR sort gate)": "low polyreactivity"}
{"sequence": "QVQLQESGGGLVQAGGSLRLSSAASGSIFKVVDMGLYRQAPAKEREFVATIGEGGNTYYADSVKGRFTMSRDNAKNTVYLQKNSLKPEDTALYFYAVVLGTSYRYTYWGQGTQVTVSS", "polyreactivity (PSR sort gate)": "low polyreactivity"}
{"sequence": "QVQLVESGGGLVQAGGSLRLSCAASGRIFADYAMGWYRQAPGKERELVAAIDWSDGSTKYADSVKGRFTISRDKAKNTVYLQMNSLKPEDTAVNYCAADYWPRDGLGWWYDYWGQGTQVTVSS", "polyreactivity (PSR sort gate)": "low polyreactivity"}
{"sequence": "QVQLVESGGGLVQAGGSLRLSCAASGYTFYANAMGWYRQAPGKEREFVASNTWSGGSTYYADSVKGRFTISRDTAKITVYLQMNSLKPEDTAVYYWAAESWFNYDYWGQGTQVTVSS", "polyreactivity (PSR sort gate)": "low polyreactivity"}
{"sequence": "QVQLVESGGGLVQAGGSLRLSCAASGITFYVYAMGWYRKAPGKERELVAAITSNGASTYYADSVKGRFTISRDNAKNTVYLQMNSLKPEDTAVYYCARRIKFPYHSYVGEYDYWGQGTQVTVSS", "polyreactivity (PSR sort gate)": "low polyreactivity"}
{"sequence": "QVQLVESGGGLVQAGGSLRLSCAASGRIFLYYTMGWYRQAPGKERELVATIRSGDSTNYADSVKGRFTISRDNAKNTVYLQMNSLKPEDTAVYYCAADWDIFQQGANGAPYDYWGQGTQVTVSS", "polyreactivity (PSR sort gate)": "low polyreactivity"}
{"sequence": "KVQLVESGGGLVQAGGSLRLSCAASGLNFGRYAMGWYRQAPGKERELVAAISSSGVRTYYADSVKGRFTISRHNAKNTVYLQMNSLKPADTAVYYCAAAYWSSREDTVIKRYYWGQGTQVTVSS", "polyreactivity (PSR sort gate)": "high polyreactivity"}
{"sequence": "QVQLVESGGGLVQAGGSLRLSCAASGAMGCYRQAPGKERELVAGITSGGSTNYADSEKGRFTISRDNAKNTVYLQMNSLKPEDTAVYYCNAVGGPRWFSVGWPYDYWGQGTQVTVSS", "polyreactivity (PSR sort gate)": "low polyreactivity"}
{"sequence": "QVQLVESGGGLVQAGGSLRLSCAASGRTFGQYVMGWYREAPGKERELVAAIRSGGSTYYADSVKGRFTISRDNAKNTVYLQMNSLKPEDTAVYYCANETYYGTDNFGQVGGEMDYWGQGTQVTVSS", "polyreactivity (PSR sort gate)": "low polyreactivity"}
{"sequence": "QVQLVESGGGLVQAGGSLRLSCAASGSTFRQYAMGWYRQAPGKERELVAGISYRGGRTYYADSVKGRFTISRDNAKNTVYLQMNSLKPEDTAVYYCNALRHYRDISVDGDDYWGQGTQVTVSS", "polyreactivity (PSR sort gate)": "high polyreactivity"}
{"sequence": "QVQLVESGGGLVQAGGSLRLSCSASGFTFRTYAMGWYRQAPGKETELVAAISRDGSSTYYADSVKGRFTISRDNAKNTVYLQLKSLKPEDTAVYYCAARIIRFYTSADKLVTSRYYYWGQGTQVTVSS", "polyreactivity (PSR sort gate)": "high polyreactivity"}
{"sequence": "QVQLVESGGGLVQAGGSLRLSCAASGSIFRYNTMGWYRQAPGKERELVARISSGGSTYYADSVKGRFTISRDNAKNTVYLQMNSLKPEDTAVYYCAAVSRHRGWDRYYWGQGTQVTVSS", "polyreactivity (PSR sort gate)": "high polyreactivity"}
{"sequence": "QVQLVESGGGLVQAGGSLRLSCAASGITFPGYARGWYRQAPGKASELVAAIDWSGDGTYYADSVKGRFTISRDNAKNTVYLQMNSLKPEDTAVYYCAKDNYPNHCTVRAVIYDYWGQGTQVTVSS", "polyreactivity (PSR sort gate)": "low polyreactivity"}
{"sequence": "QVQLVESGGGLVQAGGSLRLSCAASGSIFSYKTMGWYRQAPGKERELVAAISSDGSTYYADSVKGRFTISRDNAKNTVYLQMNSLKPEDTAVYYCAATYYPYEHYYWGQGTQVTLSS", "polyreactivity (PSR sort gate)": "low polyreactivity"}
{"sequence": "QVQLVESGGGLVQAGGSLRLSCAASGFTFAYYAMGWYRQAPGKERELVAAISSGGGSTYYADSVKGRFTISRDNAKNTVYLQMNSLKPEDTAVYYCATTIQISYDSIWYDYWGQGTQVTVSS", "polyreactivity (PSR sort gate)": "high polyreactivity"}
{"sequence": "QVQLVESGGGLVQAGGSLRLSCAASGRTLQGYAMGWYSQAPGKERELVAAISRGGGSTYADSVKGRFTISRDNAKNTVYLQMNSLKPEDTAVYYCAAVRGIYGGHYFRYDYWGQGTQVTVSS", "polyreactivity (PSR sort gate)": "high polyreactivity"}
{"sequence": "QVQLEESGGGLVQAGGSLRLSCAASGSTFWVYVMGWYRQAPGKERELVATIRWSTSSTYADSVKGRFTISRDNAKNTVYLQMNILKPEDTAVYYCNTYPRGNWGNFVEQDYDYWGQGTQVTVSS", "polyreactivity (PSR sort gate)": "low polyreactivity"}
{"sequence": "QVQLVESGGGLVQAGGSLRLSCAASGFTFGNYVMGWYRQAPGKERELVAAISKRGTSTYYADSVKGRFTISRDNAKNTVYLQMNSLKPEDTAVYYCAADGVYSHKDGLWGQGTQVTVSS", "polyreactivity (PSR sort gate)": "high polyreactivity"}
{"sequence": "QVQLVESGGGLVQAGGSLRLICAASGGIFGINAMGWYRPSPVKERELVAAINLSGGRTYYADSVKGRFTISRDNAKKTVYLLMNSLKPEDSAVYYCAAYYGYSLYGHYEYWGQGTQVTVSS", "polyreactivity (PSR sort gate)": "high polyreactivity"}
{"sequence": "QVQLVESGGGLVQAGGSLRLSCAASGFIFRYYAMGWYRHAPGKERELVAAISSGGRTSYADSVKGRFTISRDNAKNTVYLQMNSLKPEDTAVYYCAADSWRGLFYYGNDYWGQGTQVTVSS", "polyreactivity (PSR sort gate)": "high polyreactivity"}
{"sequence": "QVQLVESGGGLVQAGGSLRLSCAASGTFDAYAMGWYRQAPGKERELVASISSSGGSTYYADSVKGRFTISRDNAKNTVYLQMNSLKPEDTAVYYCAATDFWYSGYYWGQGTQVTVSS", "polyreactivity (PSR sort gate)": "low polyreactivity"}
{"sequence": "QVQLVESGGGLVQAGGSLRLICAASGSTFPSYAMGWYRQAPGKERELVAAITWSGDSTYYADSVKGRFTILRDNAKNTVYLQMNSLKPEDTAVYYCAKDGGYPVGVLGGDDMEYWGQGTQVTVSS", "polyreactivity (PSR sort gate)": "low polyreactivity"}
{"sequence": "QVQLVESGGGLVQAGGSLRLSCAASGYIFGRNAMGWYRQAPGKERELVAVISSRGSRTYYADSVKGRFTISRDNAKNTVYLQMNSLKPEDTAVYYCAVRGVVNFDYWGQGTQVTVSS", "polyreactivity (PSR sort gate)": "high polyreactivity"}
{"sequence": "QVQLVESGGGLVQAGGSLRLSCAASGSTFYPYAMGWYRQAPGKERELVAAISLSDTITYYADSVKGRFTISRDNAKNTVYLQMNSLKPEDTAVYYCAAETPGFVLYEYWGQGTQVTVSS", "polyreactivity (PSR sort gate)": "high polyreactivity"}
{"sequence": "QVQLVESGGGLVQAGGSLRLSCAASGSTIPSNAMGWYRQAPGKERELVASITYSDGTTRYADSVKGRFTISRDNAKNTVYLLMNSLKPEDTAVYYCNAVYYREGMDYWGLGTQVTVSS", "polyreactivity (PSR sort gate)": "low polyreactivity"}
{"sequence": "QVQLVESAGGLVQAGGSLRLSCAASGRIFRYNAMGWYRPAPGKERELVAAISSIGGRTYYADTVKGRFTISRDNAKNTVYLQMYSLKPEDTAVYSCNARGYLSRSHMHEYDYWGQGTQVTVSS", "polyreactivity (PSR sort gate)": "high polyreactivity"}
{"sequence": "QVQLVESGGALVQAGGRLRLSCAASGSTFTYNAMGWYRQAPGKERELVASISSGTTTYYADSVKGRFTISRDNAKNTVSLQMNSLKPEDTAVYDCAVDSWSRVQGWLAHNYDYWGQGTQVTVSS", "polyreactivity (PSR sort gate)": "low polyreactivity"}
{"sequence": "QVQLVESGGGLVQAGGSLRLSCAASGITFAFYDKGWYRQPPGKERELVAAISYSGGGTYYADSVKGRFTISRDNAKNNVYLQMNSLKPEDTAVYYCAADPKTHPLFGEDYWGQGTQVTVSS", "polyreactivity (PSR sort gate)": "low polyreactivity"}
{"sequence": "QVQLVESGGGLVQAGGSLRLTCAASGITFGRNVMGWYRQAPGKEMELVATISGSAGYTYYADSVKGRFTISRDYAKNTVYFQMNSLKPEDTSVYYCAARQRKARQIVLLDYWGQGTKVTVSS", "polyreactivity (PSR sort gate)": "high polyreactivity"}
{"sequence": "QVQLVESGGGIVQAGGSLRLSCAASGRIFVYNTMGWYRQAPGKEREFVAALSWRGGRTYYADSVKGRFTISRDNAKNTVYLQKNSLKPEDTAVYYCGADLKYYGYDYWGQGTHVTVSS", "polyreactivity (PSR sort gate)": "high polyreactivity"}
{"sequence": "QVQLVESRGGLVQAGGSLRLSSAASGSIIWYYAMGWYRQAPGKERELVAAITVSGGSTYYADSVKGRFTISRDNAKNTVYLQMNSLKPEDSAVYYCAARYISLSGDEYDYWGQGTQVTVSA", "polyreactivity (PSR sort gate)": "low polyreactivity"}
{"sequence": "QVQLVESGGGLVQAGASLRLSCAASGRTFEANTMGWYRQAPGKERELVAAITRNGGSTYYADSVKGRFTISRDNAKNTVYLQMNSLKPEDPAVYYCAARSAYRSRHKYDYWGQGTQVTVSS", "polyreactivity (PSR sort gate)": "high polyreactivity"}
{"sequence": "QVQLVESGGGLVQAGGSLRLSCAASGRTFPRNGMGWYRQAAGKERELVAAICWSGGRTYYADSVKGRFTISRDNAKNTVYLQMNSLKPEDTAVYYCNALYFRKGGYWGQGTQVTVSS", "polyreactivity (PSR sort gate)": "high polyreactivity"}
{"sequence": "QVQLVESGGGLVHAGGSLRLSCAASGSTFYSYAMGGYRQAPGKERELVAAISRSGGRTYYADSVKGRFTISRDIAKNTVYLQMKSLKPEDTAVYYCNAVNSVTTSTRTRAKYAAYDSWGQGTQVTVSS", "polyreactivity (PSR sort gate)": "high polyreactivity"}
{"sequence": "QVQLVESGGGLVQAGGRLRLSCAASGFIFKQYVMGWYRQAPGKERELVAAISRSGGSTYYADSVKGRFTISRDNAKNTVYLQMNSLKPEDNAVYYCNADNYYPDYDSWGQGTQVTVSS", "polyreactivity (PSR sort gate)": "high polyreactivity"}
{"sequence": "QVQLVESGGGLVQAGGSLRLSCAASGSILTHYAMGRYRPAPGKERELVAAITWRGGSTYYADSVKGRFTISRDNAKNTVYLQMNSLKTEDTAVYYCAADLSYPDWSRYQWDMDYWGQGTQLTVSS", "polyreactivity (PSR sort gate)": "low polyreactivity"}
